Reference: patent US20150141617A1, “PRODUCTION AND PURIFICATION OF ACTIVE EUKARYOTIC FORMYLGLYCINEGENERATING ENZYME (FGE) VARIANTS” (Universität Bielefeld, priority 2013, published 2015)

What was measured:
[1] = system: 23-aa long substrate peptide Ac-MTDFYVPVSLCTPSRAALLTGRS-NH2; assay: In vitro FGE activity assay (MALDI-ToF MS) with purified recombinant FGE from insect cells; type: biochemical; settings: for DTT concentration of maximal activity: 0-15 mM DTT, pH 9.3, 15 min 37° C.; for pH of maximal activity: MTGC buffer pH 6.5-11.0
Description: a) fl-FGE-R69A/R72A (SEQ ID NO: 4) is active and e.g. generates FGly within a 23-aa long substrate peptide 16 pmol of the 23 amino acid (aa) long peptide Ac-[…]-NH2 (SEQ ID NO:46) were incubated with 12 ng of fl-FGE-R69A/R72A for 20 min at 37° C. under assay conditions (50 mM Tris, 67 mM NaCl, 15 μM CaCl2, 0.33 mg/mL BSA, 2 mM DTT, pH 9.3 in a total volume of 30 μL).
The reaction was stopped by adding 3 μL of 20% trifluoroacetic-acid (TFA), immediately followed by vortexing and by a short centrifugation at 10000×g. The peptide was purified and concentrated by C18-Zip-Tip treatment. Therefore the Zip-Tip was prepared by pipetting three times 10 μL of 50% acetonitrile, 0.05% TFA in water and three times 10 μL 0.1% TFA in water. The 33 μL sample was pipetted 10 times up and down. The bound peptide was washed by pipetting 10 times 10 μL 0.1% TFA in water and was eluted in 10 μL 50% acetonitrile, 0.05% TFA in water by pipetting 10 times up and down. For MS-analysis the following matrix was prepared freshly: 40 μL of a saturated α-cyano-hydroxycinnamic acid solution in aceton were added to 10 μL of a solution containing 10 mg/mL nitrocellulose in 50% Aceton/50% Isopropanol (v/v). 0.5 μL of the matrix were spotted onto a polished steel target and 1 μL of the purified sample was added. The dried sample spot was analyzed by MALDI-ToF mass spectrometry using the Ultra flextreme spectrometer from Bruker Daltronics. The cysteine containing substrate peptide (2526.28 [M+H]^+) and the FGly containing product peptide (2508.29 [M+H]^+) were detected.
b) fl-FGE-R69A/R72A (SEQ ID NO:4) is able to generate FGly by using GSH as reductant:10 times stock solutions of DTT and GSH were prepared in 20 mM Tris pH 9.3. For the reaction, 13 ng of Baculo-fl-FGE were incubated with 16 pmol of the 23 aa-long substrate peptide, 2 mM DTT or 5 mM reduced glutathione for 15 min at 37° C. under assay conditions (50 mM Tris, 67 mM NaCl, 15 μM CaCl2, 0.33 mg/mL BSA, pH 9.3 in a total volume of 30 μL). The reactions were stopped and prepared further for MS-analysis as described above. The ratio of the intensity of the FGly-product peptide divided by the sum of the substrate and product intensities multiplied with 100 yields %-turnover of the substrate peptide. Based on that, specific activities were calculated.
The dependence of FGly-generating activity of recombinant fl-FGE-R69A/R72A on the reducing agents DTT and GSH were analyzed at pH 9.3 under standard assay conditions (FGE and substrate peptide were incubated at 37° C. in 50 mM Tris/HCl, 67 mM NaCl, and 0.33 mg/ml BSA in 30 μl volume. The reaction was started by addition of substrate) using a MALDI-mass spectrometry based in vitro activity assay (Ennemann et al., 2013 and FIG. 7).
The pH-dependence for in vitro activity of recombinant fl-FGE-R69A/R72A and Δ72-FGE-wt was analyzed under optimal DTT and GSH concentrations. Accordingly, the activity of recombinant fl-FGE-R69A/R72A in the presence of 2 mM DTT, under standard assay conditions, was measured in buffers of pH ranging from pH 6.5 to 11.0 (FIG. 19A). […] In the presence of 5 mM GSH, the maximal activity was also observed at pH 9.3 and a very similar activity profile ranging from pH 7.5 to 11 (FIG. 19B). […] In summary, fl-FGE-R69A/R72A requires less alkaline conditions for optimum activity than Δ72-FGE-wt.

[2] = Stability of purified recombinant FGE upon storage (SDS-PAGE, Coomassie staining or western blotting); type: physicochemical
Description: Purified enzymes are preferably stored frozen at −20° C. or −80° C., but it is known that the freeze-thaw cycle can lead to a decrease in the stability of proteins and/or accompanied loss of enzymatic activity. To minimize this effect, it is common to add stabilizing agents to preserve the stability and functionality of proteins during long-term storage. Analyses of conditions that affect the stability of purified recombinant fl-FGE-R69A/R72A and Δ72-FGE-wt were performed. The stability was assessed by analyzing the purified protein by SDS-PAGE and subsequently visualized by Coomassie staining or western blotting using FGE anti-serum as described above.
Generation of truncated FGE was increasingly detected upon removing the imidazole by size exclusion chromatography (Panel SEC, FIG. 17A). To gain further insights, aliquots of the purified fraction from size exclusion chromatography were incubated at 4° C. for either 3.5 h or 20 h in the presence of various additives like NaCl, imidazole, arginine and glycerol and later assessed by western blot using FGE anti-serum.

[3] = biological target: T1, 23 amino acid substrate peptide Ac-MTDFYVPVSLCTPSRAALLTGRS-NH2 (SEQ ID NO: 46)
T1 chain: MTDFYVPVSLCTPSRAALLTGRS

B1: dimeric FGE: disulfide-bridged dimeric form of recombinant fl-FGE-R69A/R72A separated by size exclusion chromatography (protein)
chain: ADEFSQEAGTGAGAGSLAGSCGCGTPQRPGAHGSSAAAHAYSAEANAPGPVPGERQLAHSKMVPIPAGVFTMGTDDPQIKQDGEAPARRVTIDAFYMDAYEVSNTEFEKFVNSTGYLTEAEKFGDSFVFEGMLSEQVKTNIQQAVAAAPWWLPVKGANWRHPEGPDSTILHRPDHPVLHVSWNDAVAYCTWAGKRLPTEAEWEYSCRGGLHNRLFPWGNKLQPKGQHYANIWQGEFPVTNTGEDGFQGTAPVDAFPPNGYGLYNIVGNAWEWTSDWWTVHHSVEETLNPKGPPSGKDRVKKGGSYMCHRSYCYRYRCAARSQNTPDSSASNLGFRCAADRLPTMDSGRGSHHHHHHH
DTT concentration of maximal activity [1]: 0.1 to 1 mM | DTT concentration for optimal activity under in vitro conditions ([1]; pH 9.3): 0.1 to 2 mM | stability of dimeric vs monomeric form [2]: more stable than monomeric fl FGE forms

B2: fl-FGE-R69A/R72A: human full length FGE variant, Arginine-69 and Arginine-72 converted to Alanine, non-cleavable furin motif, SEQ ID NO:4 (protein)
chain: ADEFSQEAGTGAGAGSLAGSCGCGTPQRPGAHGSSAAAHAYSAEANAPGPVPGERQLAHSKMVPIPAGVFTMGTDDPQIKQDGEAPARRVTIDAFYMDAYEVSNTEFEKFVNSTGYLTEAEKFGDSFVFEGMLSEQVKTNIQQAVAAAPWWLPVKGANWRHPEGPDSTILHRPDHPVLHVSWNDAVAYCTWAGKRLPTEAEWEYSCRGGLHNRLFPWGNKLQPKGQHYANIWQGEFPVTNTGEDGFQGTAPVDAFPPNGYGLYNIVGNAWEWTSDWWTVHHSVEETLNPKGPPSGKDRVKKGGSYMCHRSYCYRYRCAARSQNTPDSSASNLGFRCAADRLPTMDSGRGSHHHHHHH
modifications: double fl FGE variant R69A / R72A
specific activity in presence of the control reductant DTT ([1]; 2 mM DTT, 15 min 37° C., pH 9.3, 4 measurements): 24.1±1.7 mU/mg | pH of maximal activity ([1]; 2 mM DTT): 9.3 | FGly generation in substrate peptide in presence of DTT ([1]; 2 mM DTT, pH 9.3, 37° C.): is active | pH of maximal activity ([1]; 5 mM GSH): 9.3 | specific activity in presence of GSH ([1]; 5 mM reduced glutathione, 15 min 37° C., pH 9.3, 4 measurements): 15.6±1.3 mU/mg | FGly generation using GSH as reductant ([1]; 5 mM reduced glutathione, pH 9.3): active in presence of GSH | dependence of activity on reducing agent (DTT or GSH) ([1]; in vitro, pH 9.3): fully functional in the presence of either DTT or glutathione (GSH) | activity in the absence of externally added reducing agents ([1]; pH 9.3): very low activity | specific activity ([1]; purified from Baculovirus expression system (Example 7)): 33 mU/mg | stability with added imidazole ([2]; 250 mM imidazole, one freeze-thaw cycle, two weeks at −80° C.): more stable | truncated fragment (~37 kDa) of the total protein after thawing ([2]; Ni-NTA fractions containing 250-500 mM imidazole, long-term storage −80° C.): less than 5% | stability after long-term storage ([2]; Ni-NTA fractions containing 250-500 mM imidazole, −80° C.): highly stable | truncation on prolonged incubation ([2]; SEC fraction (imidazole removed), 4° C., 3.5 h or 20 h): led to generation of truncated fragments | truncation on incubation with additive ([2]; SEC fraction, 4° C., 250 mM imidazole or 850 mM NaCl): prevented further increase of FGE truncation

B3: monomeric FGE (protein)
chain: ADEFSQEAGTGAGAGSLAGSCGCGTPQRPGAHGSSAAAHAYSAEANAPGPVPGERQLAHSKMVPIPAGVFTMGTDDPQIKQDGEAPARRVTIDAFYMDAYEVSNTEFEKFVNSTGYLTEAEKFGDSFVFEGMLSEQVKTNIQQAVAAAPWWLPVKGANWRHPEGPDSTILHRPDHPVLHVSWNDAVAYCTWAGKRLPTEAEWEYSCRGGLHNRLFPWGNKLQPKGQHYANIWQGEFPVTNTGEDGFQGTAPVDAFPPNGYGLYNIVGNAWEWTSDWWTVHHSVEETLNPKGPPSGKDRVKKGGSYMCHRSYCYRYRCAARSQNTPDSSASNLGFRCAADRLPTMDSGRGSHHHHHHH
DTT concentration of maximal activity [1]: 2 mM | DTT concentration for optimal activity under in vitro conditions ([1]; pH 9.3): 1 to 10 mM

B4: Δ72-FGE (SEQ ID NO: 6), produced in High Five insect cells (protein)
chain: ADLGSSMEFEANAPGPVPGERQLAHSKMVPIPAGVFTMGTDDPQIKQDGEAPARRVTIDAFYMDAYEVSNTEFEKFVNSTGYLTEAEKFGDSFVFEGMLSEQVKTNIQQAVAAAPWWLPVKGANWRHPEGPDSTILHRPDHPVLHVSWNDAVAYCTWAGKRLPTEAEWEYSCRGGLHNRLFPWGNKLQPKGQHYANIWQGEFPVTNTGEDGFQGTAPVDAFPPNGYGLYNIVGNAWEWTSDWWTVHHSVEETLNPKGPPSGKDRVKKGGSYMCHRSYCYRYRCAARSQNTPDSSASNLGFRCAADRLPTMDSGRGSHHHHHHH
conversion of the Cys substrate peptide to the FGly product peptide (MALDI-ToF MS), DTT as reductant [3]: The Δ72-FGE (SEQ ID NO: 6) variant also converts the cysteine-containing substrate peptide to the FGly-containing product peptide in presence of the reductant DTT
